# B1: MAG1: yeast GST-HisX6 fusion protein on proteome chip (protein, UniProt P22134 1-296, looked up)
# DNA-3-methyladenine …: MKLKREYDELIKADAVKEIAKELGSRPLEVALPEKYIARHEEKFNMACEHILEKDPSLFPILKNNEFTLYLKETQVPNTLEDYFIRLASTILSQQISGQAAESIKARVVSLYGGAFPDYKILFEDFKDPAKCAEIAKCGLSKRKMIYLESLAVYFTEKYKDIEKLFGQKDNDEEVIESLVTNVKGIGPWSAKMFLISGLKRMDVFAPEDLGIARGFSKYLSDKPELEKELMRERKVVKKSKIKHKKYNWKIYDDDIMEKCSETFSPYRSVFMFILWRLASTNTDAMMKAEENFVKS
# modifications: GST-His6 tag
# notes: yeast GST-HisX6 fusion protein on proteome chip
# B2: KSS1: yeast GST-HisX6 fusion protein on proteome chip (protein, UniProt P14681 1-368, looked up)
# Mitogen-activated protein …: MARTITFDIPSQYKLVDLIGEGAYGTVCSAIHKPSGIKVAIKKIQPFSKKLFVTRTIREIKLLRYFHEHENIISILDKVRPVSIDKLNAVYLVEELMETDLQKVINNQNSGFSTLSDDHVQYFTYQILRALKSIHSAQVIHRDIKPSNLLLNSNCDLKVCDFGLARCLASSSDSRETLVGFMTEYVATRWYRAPEIMLTFQEYTTAMDIWSCGCILAEMVSGKPLFPGRDYHHQLWLILEVLGTPSFEDFNQIKSKRAKEYIANLPMRPPLPWETVWSKTDLNPDMIDLLDKMLQFNPDKRISAAEALRHPYLAMYHDPSDEPEYPPLNLDDEFWKLDNKIMRPEEEEEVPIEMLKDMLYDELMKTME
# modifications: GST-His6 tag
# notes: as for B1
# B3: URA8: yeast GST-HisX6 fusion protein on proteome chip (protein, UniProt P38627 1-578, looked up)
# CTP synthase 2: MKYVVVSGGVISGIGKGVLASSTGMLLKTLGLKVTSIKIDPYMNIDAGTMSPLEHGECFVLDDGGETDLDLGNYERYLGITLSRDHNITTGKIYSHVISRERRGDYLGKTVQIVPHLTNAIQDWIQRVSKIPVDDTGLEPDVCIIELGGTVGDIESAPFVEALRQFQFEVGRENFALIHVSLVPVIHGEQKTKPTQAAIKDLRSLGLIPDMIACRCSEELNRSTIDKIAMFCHVGPEQVVNVHDVNSTYHVPLLLLKQHMIDYLHSRLKLGEVPLTLEDKERGSQLLTNWENMTKNLDDSDDVVKIALVGKYTNLKDSYLSVTKSLEHASMKCRRQLEILWVEASNLEPETQEVDKNKFHDSWNKLSSADGILVPGGFGTRGIEGMILAAKWARESGVPFLGVCLGLQVAAIEFARNVIGRPNSSSTEFLDETLLAPEDQVVIYMPEIDKEHMGGTMRLGLRPTIFQPNSEWSNIRKLYGEVNEVHERHRHRYEINPKIVNDMESRGFIFVGKDETGQRCEIFELKGHPYYVGTQYHPEYTSKVLEPSRPFWGLVAAASGTLGEVIKDINLSEGNENE
# modifications: GST-His6 tag
# notes: as for B1
# Test system: phosphatidylcholine (PC) liposomes
# Test: Yeast proteome chip probed with PC liposomes
# Conditions: liposome binding signal on yeast proteome chip, Cy3-streptavidin detection
# In short: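 Signal comes from Cy3- or Cy5-streptavidin recognising 1% (w/w) biotin-DHPE carried in every liposome. Liposomes were PC alone or PC containing 5% (w/w) of a single phosphoinositide, applied to arrayed GST-fusion yeast proteins for 1 h at RT.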
row,Molecule,PC
1,B1,10.86
2,B2,16.43
3,B3,20.25

# Test system: PI(4)P liposomes
# Test: Yeast proteome chip probed with PI(4)P liposomes
# Conditions: liposome binding signal on yeast proteome chip, Cy3-streptavidin detection
row,Molecule,PI(4)P
1,B1,21.34
2,B2,10.45
3,B3,34.40

# Test system: PI(3,4)P2 liposomes
# Test: Yeast proteome chip probed with PI(3,4)P2 liposomes
# Conditions: liposome binding signal on yeast proteome chip, Cy3-streptavidin detection
row,Molecule,"PI(3, 4)P2"
1,B1,−2.20
2,B2,87.91
3,B3,−2.83

# Test system: PI(3,4,5)P3 liposomes
# Test: Yeast proteome chip probed with PI(3,4,5)P3 liposomes
# Conditions: liposome binding signal on yeast proteome chip, Cy3-streptavidin detection
row,Molecule,"PI(3, 4, 5)P3"
1,B1,29.02
2,B2,0.23
3,B3,42.86

# Test system: PI(4,5)P2 liposomes
# Test: Yeast proteome chip probed with PI(4,5)P2 liposomes
# Conditions: liposome binding signal on yeast proteome chip, Cy3-streptavidin detection
row,Molecule,"PI(4, 5)P2"
1,B1,5.23
2,B2,−2.61
3,B3,23.95

# Test system: PI(3)P liposomes
# Test: Yeast proteome chip probed with PI(3)P liposomes
# Conditions: liposome binding signal on yeast proteome chip, Cy3-streptavidin detection
# Excerpt: To identify PI-binding proteins in yeast, liposomes were used as probes because the liposome provides the most relevant physiological condition to assay the interactors. Six types of liposomes were used. Each contains phosphatidylcholine (“PC”) with 1% (w/w) N-(biotinoyl)-1,2-dihexadecanoyl-sn-glycero-3-phosphoethanolamine, triethylammonium salt (biotin DHPE). The biotinylated lipid serves as a label that can be detected by Cy3-streptavidin (21). In addition to PC, the five other liposomes contain either 5% (w/w) PI(3)P, PI(4)P, PI(3,4)P2, PI(4,5)P2, or PI(3,4,5)P3 (FIG. 3A).
# The protein-liposome interaction was assayed as follows. Appropriate amounts of each lipid in chloroform were mixed and dried under nitrogen. The lipid mixture was resuspended in TBS buffer by vortexing. The liposomes were created by sonication. Blocked proteome chips were washed three to five times in PBS buffer, and the extra liquid on the glass surface was removed by tapping the slides vertically on a KIMWIPE™. 200 μl of liposome solution was added to the proteome chip and immediately covered by a hydrophobic plastic cover slip (GRACE BIO-LAB™, USA). After trapped air bubbles were removed, the chip was incubated in a humidity chamber at RT for one hour. To remove the cover slip, the chip was immersed into large volume of PBS buffer (50 ml), so that the slip would float away. The chip was then moved to a second PBS bath (>50 ml) and washed 3×5 min with shaking at RT. After removing extra liquid on the surface of the chip, about 100 μl of Cy3 or Cy5 conjugated streptavidin (PIERCE™, USA; 1:2000 to 1:4000 dilution) was added to the surface and covered by a hydrophobic plastic cover slip (GRACE BIO-LABS™, USA). The chip was incubated for greater than 30 min in the dark at RT. The chip was then washed as described above. To completely remove the liquid on the chip, the chip was spun to dryness at 1500-2000 rpm for 5-10 min at RT.
# • 1. S. Fields, Y. Kohara, D. J. Lockhart, Proc. Natl. Acad. Sci. 96, 8825 (1999); A. Goffeau et al., Science 274, 563 (1996). • 2 P. Ross-Macdonald et al., Nature 402, 413 (1999); J. L., DeRisi, V. R. Iyer, P. O. Brown, Science 278, 680 (1997); E. A. Winzeler et al., Science 285, 901 (1999). P. Uetz et al., Nature 403, 623 (2000); T. Ito et al., Proc. Natl. Acad. Sci. USA. 97, 1143 (2000) • 3 H. Zhu, M. Snyder, Curr. Opin. Chem. Biol. 5, 40 (2001). • 4 M. R. Martzen et al., Science 286, 1153 (1999). • 5 H. Zhu et al., Nat. Genet. 26, 283 (2000). • 6 G. MacBeath, S. L. Schreiber, Science 289, 1760 (2000). • 7 A. Caveman, J. Cell Sci. 113, 3543 (2000). • 8 P. Arenkov et al., Anal. Biochem 278, 123 (2000). • 9 D. A. Mitchell, T. K. Marshall, R. J. Deschenes, Yeast 9, 715 (1993). The expression vector pEGH was created by inserting an RGS-HisX6 epitope tag between the GST gene and the polycloning site of pEG(KG). The yeast ORFs were cloned using the strategy described previously (5), except every step was done in a 96-well format. Plasmid DNAs confirmed by DNA sequencing were reintroduced into both yeast (Y258) and E. coli (DH5a). […] 0.1 mM calcium was present in buffers in all subsequent steps. The chip was washed three times with PBS at RT. Cy3-conjugated streptavidin (Jackson IR, USA) (1:5000 dilution) was added to the chip and incubated for 30 min at RT. After extensive washing, the chip was spun dry and scanned using a microarray scanner; the data was subsequently acquired with the GENEPIX™ array densitometry software (Axon, USA). • 12 S. S. Hook, A. R. Means, Annu. Rev. Pharmacol. Toxicol.41, 471 (2001). • 13 M. S. Cyert, R. Kunisawa, D. Kaim, J. Thorner, Proc. Natl. Acad. Sci. USA 88, 7376 (1991). • 14 D. A. Stirling, K. A. Welch, M. J. Stark, EMBO J. 13, 4329 (1994). • 15 F. Bohl, Kruse, EMBO J. 19, 5514 (2000); E. Bertrand et al., Mol. Cell 2, 437 (1998). • 16 D. C. Winter, E. Y. Choe, R. Li, Proc. Nat. Acad Sci. USA 96, 7288 (1999). • 17 C.
row,Molecule,PI(3)P
1,B1,6.50
2,B2,−11.50
3,B3,11.50
